Test system: Escherichia coli TOP10
Assay: shrunken log2 fold change of peptide-encoding DNA abundance (4.5 h post-induction vs induction); higher = less antimicrobial activity (less host growth inhibition)
Settings: time post-induction: 4.5 h; library: site-saturation at positions 5, 18, 19, 20
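Also: peptides expressed intracellularly from a pBAD plasmid library in pooled LB shake-flask culture, induced with 0.3% L-arabinose, DNA abundance read by NGS, three biological replicates, DESeq2 with apeglm shrinkage.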

RRIRIRPPRLPRPRPRPCYQPRP
shrunken log2 fold change: -0.44

RRIRIRPPRLPRPRPRPDACPRP
shrunken log2 fold change: 0.183

RRIRIRPPRLPRPRPRPDADPRP
shrunken log2 fold change: 0.194

RRIRIRPPRLPRPRPRPDAGPRP
shrunken log2 fold change: 0.158

RRIRIRPPRLPRPRPRPDAIPRP
shrunken log2 fold change: 0.0309

RRIRIRPPRLPRPRPRPDCGPRP
shrunken log2 fold change: 0.0585

RRIRIRPPRLPRPRPRPDCIPRP
shrunken log2 fold change: 0.0653

RRIRIRPPRLPRPRPRPDCVPRP
shrunken log2 fold change: -0.0493

RRIRIRPPRLPRPRPRPDDPPRP
shrunken log2 fold change: -0.0328

RRIRIRPPRLPRPRPRPDDTPRP
shrunken log2 fold change: -0.131

RRIRIRPPRLPRPRPRPDFCPRP
shrunken log2 fold change: -0.42

RRIRIRPPRLPRPRPRPDFQPRP
shrunken log2 fold change: -0.125

RRIRIRPPRLPRPRPRPDGPPRP
shrunken log2 fold change: -0.0369

RRIRIRPPRLPRPRPRPDGWPRP
shrunken log2 fold change: -0.279

RRIRIRPPRLPRPRPRPDHEPRP
shrunken log2 fold change: 0.147

RRIRIRPPRLPRPRPRPDHNPRP
shrunken log2 fold change: -0.919

RRIRIRPPRLPRPRPRPDIPPRP
shrunken log2 fold change: -0.112

RRIRIRPPRLPRPRPRPDIYPRP
shrunken log2 fold change: -0.357

RRIRIRPPRLPRPRPRPDMIPRP
shrunken log2 fold change: -0.0965

RRIRIRPPRLPRPRPRPDPVPRP
shrunken log2 fold change: -0.0546

RRIRIRPPRLPRPRPRPDQHPRP
shrunken log2 fold change: -0.202

RRIRIRPPRLPRPRPRPDQNPRP
shrunken log2 fold change: 0.0467

RRIRIRPPRLPRPRPRPDSLPRP
shrunken log2 fold change: -0.163

RRIRIRPPRLPRPRPRPDSWPRP
shrunken log2 fold change: -0.268

RRIRIRPPRLPRPRPRPDTYPRP
shrunken log2 fold change: -0.347

RRIRIRPPRLPRPRPRPDVGPRP
shrunken log2 fold change: -0.284

RRIRIRPPRLPRPRPRPDWSPRP
shrunken log2 fold change: -0.161

RRIRIRPPRLPRPRPRPDYFPRP
shrunken log2 fold change: 0.197

RRIRIRPPRLPRPRPRPDYHPRP
shrunken log2 fold change: -1.9

RRIRIRPPRLPRPRPRPEALPRP
shrunken log2 fold change: 0.00934

RRIRIRPPRLPRPRPRPEAMPRP
shrunken log2 fold change: 0.124

RRIRIRPPRLPRPRPRPEAVPRP
shrunken log2 fold change: 0.0843

RRIRIRPPRLPRPRPRPECFPRP
shrunken log2 fold change: 0.042

RRIRIRPPRLPRPRPRPEDKPRP
shrunken log2 fold change: -0.401

RRIRIRPPRLPRPRPRPEERPRP
shrunken log2 fold change: 0.0136

RRIRIRPPRLPRPRPRPEFDPRP
shrunken log2 fold change: 0.0326

RRIRIRPPRLPRPRPRPEFYPRP
shrunken log2 fold change: -0.333

RRIRIRPPRLPRPRPRPEHPPRP
shrunken log2 fold change: -0.182

RRIRIRPPRLPRPRPRPEHWPRP
shrunken log2 fold change: 0.168

RRIRIRPPRLPRPRPRPEIAPRP
shrunken log2 fold change: -0.141

RRIRIRPPRLPRPRPRPEIIPRP
shrunken log2 fold change: -0.00386

RRIRIRPPRLPRPRPRPEIMPRP
shrunken log2 fold change: -0.183

RRIRIRPPRLPRPRPRPEISPRP
shrunken log2 fold change: -0.481

RRIRIRPPRLPRPRPRPEKIPRP
shrunken log2 fold change: -0.0431

RRIRIRPPRLPRPRPRPELDPRP
shrunken log2 fold change: 0.0332

RRIRIRPPRLPRPRPRPELIPRP
shrunken log2 fold change: 0.0381

RRIRIRPPRLPRPRPRPEMYPRP
shrunken log2 fold change: -0.174

RRIRIRPPRLPRPRPRPENIPRP
shrunken log2 fold change: -0.106

RRIRIRPPRLPRPRPRPEPAPRP
shrunken log2 fold change: 0.326

RRIRIRPPRLPRPRPRPEPQPRP
shrunken log2 fold change: -0.0904

RRIRIRPPRLPRPRPRPEPRPRP
shrunken log2 fold change: 0.563

RRIRIRPPRLPRPRPRPEQGPRP
shrunken log2 fold change: 0.0755

RRIRIRPPRLPRPRPRPEQHPRP
shrunken log2 fold change: -0.0723

RRIRIRPPRLPRPRPRPEQPPRP
shrunken log2 fold change: 0.307

RRIRIRPPRLPRPRPRPEQVPRP
shrunken log2 fold change: 0.0205

RRIRIRPPRLPRPRPRPERCPRP
shrunken log2 fold change: 0.296

RRIRIRPPRLPRPRPRPEVFPRP
shrunken log2 fold change: -0.202

RRIRIRPPRLPRPRPRPEVNPRP
shrunken log2 fold change: -0.294

RRIRIRPPRLPRPRPRPEWIPRP
shrunken log2 fold change: 0.0384

RRIRIRPPRLPRPRPRPEWQPRP
shrunken log2 fold change: 0.118

— the supplement of paper PMC9112550, “Optimization of the antimicrobial peptide Bac7 by deep mutational scanning” (BMC Biology, 2022)
